Target: T1, rat FSH receptor (rat testis homogenate) (rat (endogenous in rat testis), UniProt P20395 18-692)
T1 sequence (looked up): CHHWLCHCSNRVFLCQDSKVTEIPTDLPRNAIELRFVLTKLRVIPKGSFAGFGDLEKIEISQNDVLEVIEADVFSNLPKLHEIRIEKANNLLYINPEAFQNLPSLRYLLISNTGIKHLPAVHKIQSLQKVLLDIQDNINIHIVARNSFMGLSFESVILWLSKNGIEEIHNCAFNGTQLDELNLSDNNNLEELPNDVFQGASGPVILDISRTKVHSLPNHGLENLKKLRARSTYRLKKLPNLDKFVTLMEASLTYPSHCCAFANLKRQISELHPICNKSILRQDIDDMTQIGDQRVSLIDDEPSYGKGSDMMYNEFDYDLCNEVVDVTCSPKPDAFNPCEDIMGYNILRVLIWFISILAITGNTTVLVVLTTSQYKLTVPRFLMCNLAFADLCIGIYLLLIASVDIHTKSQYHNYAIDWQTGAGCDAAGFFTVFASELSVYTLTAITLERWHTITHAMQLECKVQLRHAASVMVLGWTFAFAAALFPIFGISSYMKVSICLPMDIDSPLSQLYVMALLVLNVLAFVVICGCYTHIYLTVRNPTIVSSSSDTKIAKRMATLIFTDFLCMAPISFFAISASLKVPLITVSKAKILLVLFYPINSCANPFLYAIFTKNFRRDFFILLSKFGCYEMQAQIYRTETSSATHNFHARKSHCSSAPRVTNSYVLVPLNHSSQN
Experiment: radioligand binding

B1: Pituitary hFSH^24/21 (AFP7298A) (ligand)
chain 1: not shown
chain 2: NSCELTNITIAIEKEECRFCISINTTWCAGYCYTRDLVYKDPARPKIQKTCTFKELVYETVRVPGCAHHADSLYTYPVATQCHCGKCDSDSTDCTVRGLGPSYCSFGEMKE
modifications: N-glycosylated (positions not given) | mixture of FSHβ^24 (fully glycosylated) and FSHβ^21, FSHβ^24 the more abundant
- ID50: 114 ng

B2: Pituitary hFSH^24 (ligand)
chain 1: not shown
chain 2: B1 chain 2
modifications: N-glycosylated (two N-glycans, positions not given) | fully glycosylated FSHβ^24 (N-glycans at Asn7 and Asn24)
- ID50: 253 ng

— PMC4378652 (Molecular and cellular endocrinology, 2015)
